Our source for the response values is paper PMC2661965.

Test in all cases: BiFC
One assay addresses V2-Trap-80 (UniProt Q8VCD5). Particulars: HEK-293 cells, co-transfection; parent: est. 72; read off a plot.
A further assay concerns the target p65-V2 (UniProt Q04207). Particulars: HEK-293 cells, co-transfection; parent: est. 740; read off a plot.
Another assay concerns the target T1, V2-Trap-80, Q8VCD5.
T1 chain: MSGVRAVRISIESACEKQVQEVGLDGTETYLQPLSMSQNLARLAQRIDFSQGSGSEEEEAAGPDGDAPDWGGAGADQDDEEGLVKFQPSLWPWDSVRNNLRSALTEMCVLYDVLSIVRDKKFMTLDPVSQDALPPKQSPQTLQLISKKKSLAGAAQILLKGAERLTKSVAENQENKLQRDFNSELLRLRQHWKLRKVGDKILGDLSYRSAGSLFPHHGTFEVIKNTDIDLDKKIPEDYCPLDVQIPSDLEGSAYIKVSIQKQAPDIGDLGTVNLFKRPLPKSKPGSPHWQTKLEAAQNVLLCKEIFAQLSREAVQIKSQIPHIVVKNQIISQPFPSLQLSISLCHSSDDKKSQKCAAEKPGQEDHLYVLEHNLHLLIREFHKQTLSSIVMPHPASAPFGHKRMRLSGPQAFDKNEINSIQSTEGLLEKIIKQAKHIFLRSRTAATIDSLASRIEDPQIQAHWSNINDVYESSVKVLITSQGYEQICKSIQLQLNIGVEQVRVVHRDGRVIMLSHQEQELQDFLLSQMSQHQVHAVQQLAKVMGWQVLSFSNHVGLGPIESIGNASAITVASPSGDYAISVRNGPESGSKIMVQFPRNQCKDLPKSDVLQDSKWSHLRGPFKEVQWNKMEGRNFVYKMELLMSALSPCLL
The following applies: chain shown with the change; HEK-293 cells, co-transfection; parent: est. 72; read off a plot.

For the next assay, the target named is T2, p65-V2, Q04207.
T2 chain: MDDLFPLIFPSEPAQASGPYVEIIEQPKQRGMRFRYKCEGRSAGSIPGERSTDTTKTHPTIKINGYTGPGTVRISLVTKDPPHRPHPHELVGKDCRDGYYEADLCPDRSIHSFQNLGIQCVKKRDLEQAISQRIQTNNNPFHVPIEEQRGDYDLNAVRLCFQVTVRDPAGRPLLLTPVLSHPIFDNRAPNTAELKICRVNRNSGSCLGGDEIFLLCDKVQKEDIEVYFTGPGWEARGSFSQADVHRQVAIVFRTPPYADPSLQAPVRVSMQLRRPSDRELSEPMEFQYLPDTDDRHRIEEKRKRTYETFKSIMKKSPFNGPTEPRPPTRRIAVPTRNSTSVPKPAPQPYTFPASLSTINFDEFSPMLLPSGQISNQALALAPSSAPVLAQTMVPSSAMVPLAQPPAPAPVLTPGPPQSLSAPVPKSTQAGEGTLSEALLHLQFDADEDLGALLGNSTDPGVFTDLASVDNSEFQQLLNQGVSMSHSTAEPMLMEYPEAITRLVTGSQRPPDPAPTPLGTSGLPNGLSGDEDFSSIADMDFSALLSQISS
The following applies: chain shown with the change; HEK-293 cells, co-transfection; parent: est. 740; read off a plot.

Take “p65ΔTA2 fused to Venus fragment 1 (from UniProt Q04207) TA1 mut528-534”: the response with V2-Trap-80 stood at 40 % wt p65; in the assay with p65-V2, 550 % wt p65.
“p65ΔTA2 fused to Venus fragment 1 (from UniProt Q04207) TA1 mut535-541”: the response was 38 % wt p65 with V2-Trap-80 and 640 % wt p65 in the assay with p65-V2.

B1: p65ΔTA2 fused to Venus fragment 1, Q04207 D539A; F540A (protein)
chain: MDDLFPLIFPSEPAQASGPYVEIIEQPKQRGMRFRYKCEGRSAGSIPGERSTDTTKTHPTIKINGYTGPGTVRISLVTKDPPHRPHPHELVGKDCRDGYYEADLCPDRSIHSFQNLGIQCVKKRDLEQAISQRIQTNNNPFHVPIEEQRGDYDLNAVRLCFQVTVRDPAGRPLLLTPVLSHPIFDNRAPNTAELKICRVNRNSGSCLGGDEIFLLCDKVQKEDIEVYFTGPGWEARGSFSQADVHRQVAIVFRTPPYADPSLQAPVRVSMQLRRPSDRELSEPMEFQYLPDTDDRHRIEEKRKRTYETFKSIMKKSPFNGPTEPRPPTRRIAVPTRNSTSVPKPAPQPYTFPASLSTINFDEFSPMLLPSGQISNQALALAPSSAPVLAQTMVPSSAMVPLAQPPAPAPVLTPGPPQSLSAPVPKSTQAGEGTLSEALLHQLLNQGVSMSHSTAEPMLMEYPEAITRLVTGSQRPPDPAPTPLGTSGLPNGLSGDEDFSSIADMAASALLSQISS
Regarding B1, the response with V2-Trap-80, Q8VCD5 came to 35 % wt p65; with p65-V2, Q04207, 600 % wt p65.
